Measured values taken from patent publication US20220290188.

Experiments:
Assay in all cases: cell_activity
[1] = system: TL8181 TALE-KRAB (synthetic); details: TIM3, day 2
[2] = system: TL11110 TALE-KRAB (synthetic); details: PD-1, day 2
[3] = system: TL11126 TALE-KRAB (synthetic); details: PD-1, day 2
[4] = system: TL11102 TALE-KRAB (synthetic); details: PD-1, day 2
[5] = system: TL11088 TALE-KRAB (synthetic); details: PD-1, day 2
[6] = system: TL11877 TALE-KRAB (synthetic); details: PD-1, day 2; table prints SEQ 63 but bases match SEQ 18
[7] = system: TL11131 TALE-KRAB (synthetic); details: PD-1, day 2
[8] = system: TL11112 TALE-KRAB (synthetic); details: PD-1, day 2
[9] = system: TL11105 TALE-KRAB (synthetic); details: PD-1, day 2
[10] = system: TL11087 TALE-KRAB (synthetic); details: PD-1, day 2
[11] = system: TL11132 TALE-KRAB (synthetic); details: PD-1, day 2
[12] = system: TL11133 TALE-KRAB (synthetic); details: PD-1, day 2
[13] = system: TL11124 TALE-KRAB (synthetic); details: PD-1, day 2
[14] = system: TL11092 TALE-KRAB (synthetic); details: PD-1, day 2
[15] = system: TL11127 TALE-KRAB (synthetic); details: PD-1, day 2
[16] = system: TL8241 TALE-KRAB (synthetic); details: LAG3, day 2
[17] = system: TL11879 TALE-KRAB (synthetic); details: PD-1, day 2
[18] = system: TL11130 TALE-KRAB (synthetic); details: PD-1, day 2
[19] = system: TL11876 TALE-KRAB (synthetic); details: PD-1, day 2
[20] = system: TL8201 TALE-KRAB (synthetic); details: TIM3, day 2
[21] = system: TL11875 TALE-KRAB (synthetic); details: PD-1, day 2
[22] = system: TL11099 TALE-KRAB (synthetic); details: PD-1, day 2
[23] = system: TL8222 TALE-KRAB (synthetic); details: LAG3, day 2
[24] = system: TL8220 TALE-KRAB (synthetic); details: LAG3, day 2
[25] = system: TL11129 TALE-KRAB (synthetic); details: PD-1, day 2
[26] = system: TL11128 TALE-KRAB (synthetic); details: PD-1, day 2
[27] = system: TL11103 TALE-KRAB (synthetic); details: PD-1, day 2
[28] = system: TL11119 TALE-KRAB (synthetic); details: PD-1, day 2
[29] = system: TL11096 TALE-KRAB (synthetic); details: PD-1, day 2
[30] = system: TL8188 TALE-KRAB (synthetic); details: TIM3, day 2
[31] = system: TL11084 TALE-KRAB (synthetic); details: PD-1, day 2
[32] = system: TL11108 TALE-KRAB (synthetic); details: PD-1, day 2
[33] = system: TL11093 TALE-KRAB (synthetic); details: PD-1, day 2
[34] = system: TL8214 TALE-KRAB (synthetic); details: LAG3, day 2
[35] = system: TL11094 TALE-KRAB (synthetic); details: PD-1, CD3+ T cells, day 2
[36] = system: TL11104 TALE-KRAB (synthetic); details: PD-1, day 2
[37] = system: TL11101 TALE-KRAB (synthetic); details: PD-1, day 2
[38] = system: TL8216 TALE-KRAB (synthetic); details: LAG3, day 2
[39] = system: TL9598 TALE-KRAB (synthetic); details: LAG3, day 2
[40] = system: pAL040 TALE-KRAB (synthetic); details: PD-1, day 2
[41] = system: TL9342 TALE-KRAB (synthetic); details: TIM3, day 2
[42] = system: TL8189 TALE-KRAB (synthetic); details: TIM3, day 2
[43] = system: TL9337 TALE-KRAB (synthetic); details: TIM3, day 2
[44] = system: TL9606 TALE-KRAB (synthetic); details: LAG3, day 2
[45] = system: pAL043 (PD02) TALE-KRAB (synthetic); details: PD-1, day 2
[46] = system: TL9339 TALE-KRAB (synthetic); details: TIM3, day 2
[47] = system: TL9820 TALE-KRAB (synthetic); details: LAG3, day 2
[48] = system: TL11106 TALE-KRAB (synthetic); details: PD-1, day 2
[49] = system: TL9717 TALE-KRAB (synthetic); details: LAG3, day 2

Sequence: ACTTCTTCCAACTGT (double strand) [TL8181 site]
- activity [1]: > 50 % repression

Sequence: CAACCTGACCTGGGACAGTT (double strand) [TL11110 site]
- activity [2]: > 80 % repression

Sequence: CACTCTCGCCCACGTGGAT (double strand) [TL11126 site]
- activity [3]: > 50 % repression

Sequence: CCACTGCTCAGGCGGAGGT (double strand) [TL11102 site]
- activity [4]: > 50 % repression

Sequence: CCCACAGGCGCCCTGG (double strand) [TL11088 site]
- activity [5]: > 50 % repression

Sequence: CCCAGGTCAGGTTGAAG (double strand) [TL11877 site]
- activity [6]: > 80 % repression

Sequence: CCCCCAGCACTGCCTCT (double strand) [TL11131 site]
- activity [7]: > 50 % repression

Sequence: CCCTTCAACCTGACCT (double strand) [TL11112 site]
- activity [8]: > 80 % repression

Sequence: CCCTTCCGCTCACCTCCGC (double strand) [TL11105 site]
- activity [9]: > 80 % repression

Sequence: CCTCCACATCCACGTGGGC (double strand) [TL11087 site]
- activity [10]: > 50 % repression

Sequence: CCTCCCCCAGCACTGC (double strand) [TL11132 site]
- activity [11]: > 80 % repression

Sequence: CCTCCCCCAGCACTGCC (double strand) [TL11133 site]
- activity [12]: > 80 % repression

Sequence: CTCGCCCACGTGGATGTGG (double strand) [TL11124 site]
- activity [13]: > 50 % repression

Sequence: CTGCATGCCTGGAGCAG (double strand) [TL11092 site]
- activity [14]: > 50 % repression

Sequence: CTGTCACTCTCGCCCACGT (double strand) [TL11127 site]
- activity [15]: > 50 % repression

Sequence: CTGTTCCCTGGGACACCCCC (double strand) [TL8241 site]
- activity [16]: > 50 % repression

Sequence: CTTCCTCCACATCCACG (double strand) [TL11879 site]
- activity [17]: > 50 % repression

Sequence: GACAGAGGCAGTGCTGG (double strand) [TL11130 site]
- activity [18]: > 50 % repression

Sequence: GACCTGGGACAGTTTCC (double strand) [TL11876 site]
- activity [19]: > 80 % repression

Sequence: GAGAAAATTGTATTAGAT (double strand) [TL8201 site]
- activity [20]: > 50 % repression

Sequence: GCAGATCCCACAGGCGC (double strand) [TL11875 site]
- activity [21]: > 80 % repression

Sequence: GCCGCCTTCTCCACT (double strand) [TL11099 site]
- activity [22]: > 80 % repression

Sequence: GCCGTTCTGCTGGTCT (double strand) [TL8222 site]
- activity [23]: > 80 % repression

Sequence: GCCGTTCTGCTGGTCTCT (double strand) [TL8220 site]
- activity [24]: > 80 % repression

Sequence: GCCTCTGTCACTCTCG (double strand) [TL11129 site]
- activity [25]: > 80 % repression

Sequence: GCCTCTGTCACTCTCGCCC (double strand) [TL11128 site]
- activity [26]: > 80 % repression

Sequence: GCTCAGGCGGAGGTGAG (double strand) [TL11103 site]
- activity [27]: > 50 % repression

Sequence: GCTCCCGCCCCCTCTTCCT (double strand) [TL11119 site]
- activity [28]: > 50 % repression

Sequence: GGAGCAGCCCCACCAGAGT (double strand) [TL11096 site]
- activity [29]: > 50 % repression

Sequence: GGCAGTGTTACTATAA (double strand) [TL8188 site]
- activity [30]: > 80 % repression

Sequence: GGCCAGGGCGCCTGT (double strand) [TL11084 site]
- activity [31]: > 50 % repression

Sequence: GGGACAGTTTCCCTTC (double strand) [TL11108 site]
- activity [32]: > 80 % repression

Sequence: GGGGCTGCTCCAGGCATGC (double strand) [TL11093 site]
- activity [33]: > 50 % repression

Sequence: GGTCTCTGGGCCTTCA (double strand) [TL8214 site]
- activity [34]: > 80 % repression

Sequence: GGTGGGGCTGCTCCAGG (double strand) [TL11094 site]
- activity [35]: > 80 % repression

Sequence: TCCGCTCACCTCCGCCTGA (double strand) [TL11104 site]
- activity [36]: > 80 % repression

Sequence: TCTCCACTGCTCAGGCG (double strand) [TL11101 site]
- activity [37]: > 80 % repression

Sequence: TCTGCTGGTCTCTGGGCC (double strand) [TL8216 site]
- activity [38]: > 80 % repression

Sequence: TCTGCTGGTCTCTGGGCCTTC (double strand) [TL9598 site]
- activity [39]: > 80 % repression

Sequence: TCTGTCACTCTCGCCCAC (double strand) [pAL040 site]
- activity [40]: > 80 % repression

Sequence: TGCCACACTACACACAT (double strand) [TL9342 site]
- activity [41]: > 80 % repression

Sequence: TGCCAGTGATTCTTATAGT (double strand) [TL8189 site]
- activity [42]: > 80 % repression

Sequence: TGGCAATCAGACACCCGGGTG (double strand) [TL9337 site]
- activity [43]: > 80 % repression

Sequence: TGGTCTCTGGGCCTTCACCC (double strand) [TL9606 site]
- activity [44]: > 80 % repression

Sequence: TGGTGGGGCTGCTCC (double strand) [pAL043 site]
- activity [45]: > 80 % repression

Sequence: TGTCTGATTGCCAGTGATT (double strand) [TL9339 site]
- activity [46]: > 80 % repression

Sequence: TTCACCCCTGTGCCCGGCCTTCC (double strand) [TL9820 site]
- activity [47]: > 80 % repression

Sequence: TTCCCTTCCGCTCACC (double strand) [TL11106 site]
- activity [48]: > 80 % repression

Sequence: TTTGCTCTGTCTGCTC (double strand) [TL9717 site]
- activity [49]: > 80 % repression
